Data as given in article PMC7263513 (bioRxiv, 2020).

Target: SARS-CoV-2 receptor binding domain (RBD) (Severe acute respiratory syndrome …, UniProt P0DTC2)
Test: cell-based or functional assay

Row | Binder | IC50 of neutralisation of SARS-CoV-2 pseudovirus (293T_(ACE2) cells)
1 | C143 (antibody, V domains shown) VH: EVQLVESGGGLVQPGGSLRLSCAASGFSVSTKYMTWVRQAPGKGLEWVSVLYSGGSDYYADSVKGRFTISRDNSKNALYLQMNSLRVEDTGVYYCARDSSEVRDHPGHPGRSVGAFDIWGQGTMVTVSS VL: QSALTQPASVSGSPGQSITISCTGTSNDVGSYTLVSWYQQYPGKAPKLLIFEGTKRSSGISNRFSGSKSGNTASLTISGLQGEDEADYYCCSYAGASTFVFGGGTKLTVL | > 1 µg/mL
2 | C145 (antibody, V domains shown) VH: EVQLVESGGGLIQPGGSLRLSCAASGFSVSSNYMSWVRQAPGKGLEWVSVIYSGGSTYYADSVKGRFTISRDNSKNTLYLQMNSLRAEDTAVYYCAREGEVEGYYDFWSGYSRDRYYFDYWGQGTLVTVSS VL: QSALTQPASVSGSPGQSITISCTGTSSDVGGYNYVSWYQQHPGKAPKLMIYDVSNRPSGVSNRFSGSKSGNTASLTISGLQAEDEADYYCSSYTSSTTRVFGTGTRVTVL | 0.00304 µg/mL
3 | C148 (antibody, V domains shown) VH: EVQLVESGGGLVQPGGSQRLSCAASGFTVSSNYMSWIRQAPGKGLEWVSVIYSGGSAYYVDSVKGRFTISRDNSKNTLYLQMNSLRPEDTAVYYCARIANYMDVWGKGTTVTVSS VL: EIVMTQSPATLSVSPGERATLSCRASQSVSSHLAWYQQKPGQAPRLLIYGASTRATGIPTRFSGSGSGTEFTLTISSLQSEDFAVYYCQQYNNWPPLTFGGGTKVEIK | > 1 µg/mL
4 | C150 (antibody, V domains shown) VH: EVQLVESGGGLVQPGGSLRLSCVASGFTFSSYWMHWVRQVPGKGPVWVSHINSEGSSTNYADSVRGRFTISRDNAKDTLYLQMNNLRAEDTAVYYCARPTAVAAAGNYFYYYGMDVWGQGTTVTVSS VL: QSALTQPASVSGSPGQSITISCTGTSSDVGYYNFVSWYQQHPGKAPKLMIYEVSNRPSGVSNRFSGSKSGNTASLIISGLQAEDEADYYCSSYRSSSTLVFGGGTKLTVL | > 1 µg/mL
5 | C151 (antibody, V domains shown) VH: EVQLVESGGGLVKPGGSLRLSCAASGFTFSSYNMNWVRQAPGKGLEWVSCISSSSSYIYYADSVKGRFTISRDNAKNSLYLQMNSLRAEDTAVYYCARERGYDGGKTPPFLGGQGTLVTVSS VL: NFMLTQPHSVSESPGKTVTISCTGSSGSIASNYVQWYQQRPGSAPTTVIYEDNQRPSGVPDRFSGSIDSSSNSASLTISGLKTEDEADYYCQSYDSSNYWVFGGGTKLTVL | 0.0318 µg/mL
6 | C153 (antibody, V domains shown) VH: EVQLVESGGGLIQPGGSLRLSCAASGFTVSSNYMSWVRQAPGKGLEWVSVIYSGYSTYYVDSVKGRFTISRDNSKNTLYLQMNSLRAEDTAVYYCARVGGAHSGYDGSFDYWGQGTLVTVSS VL: QSALTQPASVSGSPGQSITISCTGTSSDVGSYNLVSWYQQHPGKAPKLMIYEGSKRPSGVSNRFSGSKSGNTASLTISGLQAEDEADYYCCSYAGSSTWVFGGGTKLTVL | 0.0707 µg/mL
7 | C154 (antibody, V domains shown) VH: QVQLVESGGGVVQPGRSLRLSCAASGFTFSRYGMHWVRQAPGKGLEWVAVMSYDGSSKYYADSVKGRFTISRDNSKNTLCLQMNSLRAEDTAVYYCAKQAGPYCSGGSCYSAPFDYWGQGTLVTVSS VL: DIQMTQSPSSLSASVGDRVTITCQASQGISNYLNWYQQKPGKAPKLLIYDASNLETGVPSRFSGSGSGTDFTFTISSLQPEDIATYYCQQYDNLPITFGQGTRLEIK | 0.435 µg/mL
8 | C155 (antibody, V domains shown) VH: EVQLVESGGGLIQPGGSLRLSCAASGFIVSSNYMSWVRQAPGKGLEWVSVIYSGGSTFYADSVKGRFTISRDNSKNTLYLQMNSLRAEDTAVYYCARDFGEFYFDYWGQGTLVTVSS VL: EIVMTQSPATLSVSPGERATLSCRASQSVSSNLAWYQQKPGQAPRLLIYGASTRATAIPARFSGSGSGTEFTLTISSLQSEDFAVYYCQQYNNWPRTFGQGTKVEIK | 0.011 µg/mL
9 | C156 (antibody, V domains shown) VH: QVQLVESGGGVVQPGRSLRLSCAASGFTFSNYGMHWVRQAPGKGLEWVAVISYDGNNKYYADSVKGRFTISRDNSKNTLYLQMNSLRAEDTAVYYCAKDPFPLAVAGTGYFDYWGQGTLVTVSS VL: SYELTQPPSVSVAPGQTARISCGGNNIGSKNVHWYQQKPGQAPVLVVYDDSDRPSGIPERFSGSNSGNTATLTISRVEAGDEADYYCQVWDSSSDPWVFGGGTKLTVL | > 1 µg/mL
10 | C164 (antibody, V domains shown) VH: EVQLVESGGGLVQPGGSLRLSCAASGFSVSTKYMTWVRQAPGKGLEWVSVLYSGGSDYYADSVKGRFTISRDNSKNALYLQMNSLRVEDTGVYYCARDSSEVRDHPGHPGRSVGAFDIWGQGTMVTVSS VL: QSALTQPASVSGSPGQSITISCTGTSNDVGSYTLVSWYQQYPGKAPKLLIFEVTKRSSGISNRFSGSKSGNTASLTISGLQGEDEADYYCCSYAGASTFVFGGGTKLTVL | 0.239 µg/mL
11 | C165 (antibody, V domains shown) VH: QVQLVQSGAEVKKPGSSVKVSCKASGGTFSSYAINWVRQAPGQGLEWMGRIIPIVGIANYAQKFQGRVTITADKSSSTAYMELSSLRSEDTAVYYCARDLLDPQLDDAFDIWGQGTMVTVSS VL: not shown | 0.0408 µg/mL
12 | C201 (antibody, V domains shown) VH: EVQLVESGGGLVQPGRSLRLSCAASGFTFDDYAMHWVRQAPGKGLEWVSGISWNSGSIGYADSVKGRFTISRDNAKNSLYLQMNSLRAEDTALYYCVKGVEYSSSSNFDYWGQGTLVTVSS VL: IRMTQSPSSVSASVGDRVTITCRASQGISSWLAWYQQKPGKAPKLLIYVESSLQSGVPSRFSGSGSGTDFTLTISSLQPEDFATYYCQQANSFPLTFGGGTKVEIK | > 1 µg/mL
13 | C202 (antibody, V domains shown) VH: EVQLVESGGGLVQPGGSLRLSCAASGFTVSSNYMSWVRQAPGKGLEWVSLIYSGGSTYYADSVKGRFTISRDNSKNTLYLQMNSLRAEDTAVYYCARDTLGRGGDYWGQGTLVTVSS VL: DIQLTQSPSSLSASVGDRVTITCQASQDISNYLNWYQQKPGKAPKLLIYDASNLETGVPSRFSGSGSGTDFTFTISSLQPEDIATYYCQQYDNLPRSFGQGTKLEIK | > 1 µg/mL
14 | C204 (antibody, V domains shown) VH: EVQLLESGGGLEQPGGSLRLSCAASGFTFSTYAMSWVRQAPGKGLEWVSAISGSGAGTFYADSVKGRFTISRDNSKNTLYLQMNSLRAEDTAVYYCARESDCGSTSCYQVGWFDPWGQGTLVTVSS VL: not shown | > 1 µg/mL
15 | C207 (antibody, V domains shown) VH: not shown VL: EIVLTQSPATLSLSPGERATLSCRASQSVSSYLAWYQQKPGQAPRLLIYDASNRATGIPARFSGSGSGTDFTLTISSLEPEDFAVYYCQQRSNWPRGFGQGTKVEIK | 0.159 µg/mL
16 | C210 (antibody, V domains shown) VH: EVQLVESGGGLIQPGGSLRLSCAASGFTVSSNYMSWVRQAPGKGLEWVSVIYSGGSTFYADSVKGRFTFSRDNSKNTLYLQMNSLRAEDTAVYYCARDLMAYGMDVWGQGTTVTVSS VL: DIQLTQSPSFLSASVGDRVTITCRASQGISSYLAWYQQKPGKAPKLLIYAASTLQSGVPSRFSGSGSGTEFTLTISSLQPEDFATYYCQQLNSYPQGTFGGGTKVEIK | 0.0507 µg/mL
